Assay results reported in patent US6921663.

Columns and labels:
Assay in all cases: cell-based or functional assay
[1] = target: integrin on CHO cells
[2] = target: integrin on SK-HEP1 cells (human (cell line))
[3] = target: RGD peptide target integrin (αvβ3 or αvβ5) on LN444 cells (human (LN444 human glioma cells)) (UniProt P06756)
UniProt P06756, sequence (P06756 whole entry): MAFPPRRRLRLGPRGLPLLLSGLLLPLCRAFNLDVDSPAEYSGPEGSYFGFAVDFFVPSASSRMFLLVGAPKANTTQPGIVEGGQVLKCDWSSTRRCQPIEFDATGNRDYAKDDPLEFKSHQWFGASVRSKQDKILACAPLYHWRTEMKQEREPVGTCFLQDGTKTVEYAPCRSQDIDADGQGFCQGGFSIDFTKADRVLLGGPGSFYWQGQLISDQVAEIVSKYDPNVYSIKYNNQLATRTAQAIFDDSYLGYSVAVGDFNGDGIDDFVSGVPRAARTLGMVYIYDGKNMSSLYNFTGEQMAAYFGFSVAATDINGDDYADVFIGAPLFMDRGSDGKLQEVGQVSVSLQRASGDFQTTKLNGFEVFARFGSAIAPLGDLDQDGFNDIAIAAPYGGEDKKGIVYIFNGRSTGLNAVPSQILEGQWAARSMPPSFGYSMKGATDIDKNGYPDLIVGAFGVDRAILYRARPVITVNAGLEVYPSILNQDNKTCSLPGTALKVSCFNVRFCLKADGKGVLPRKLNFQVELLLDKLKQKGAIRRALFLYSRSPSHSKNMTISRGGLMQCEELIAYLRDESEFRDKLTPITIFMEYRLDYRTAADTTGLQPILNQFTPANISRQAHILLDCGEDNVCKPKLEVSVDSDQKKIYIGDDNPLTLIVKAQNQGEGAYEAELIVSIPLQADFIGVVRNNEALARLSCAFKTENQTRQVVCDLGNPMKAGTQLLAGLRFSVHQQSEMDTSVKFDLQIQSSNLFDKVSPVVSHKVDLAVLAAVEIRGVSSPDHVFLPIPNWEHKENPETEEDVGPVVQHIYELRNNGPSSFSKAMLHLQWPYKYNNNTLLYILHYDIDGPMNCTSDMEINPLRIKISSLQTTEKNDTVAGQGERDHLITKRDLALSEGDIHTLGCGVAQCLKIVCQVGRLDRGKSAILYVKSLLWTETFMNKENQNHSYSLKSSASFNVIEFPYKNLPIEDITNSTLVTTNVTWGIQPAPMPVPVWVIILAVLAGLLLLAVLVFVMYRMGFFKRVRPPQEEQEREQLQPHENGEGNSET

AdHM15-RGD-LacZ (adenovirus type 5 vector whose fiber carries the RGD-4C peptide in the HI loop; LacZ cassette in the E1-deleted region) (from UniProt P11818 1-546; P11818 547-581)
LacZ enzyme activity after transduction of CHO cells (CAR not expressed), against AdHM4-LacZ (wild fiber) [1]: 40 fold | LacZ enzyme activity after transduction of SK-HEP1 cells, against AdHM4-LacZ (wild fiber) [2]: 2 fold

AdHM15-RGD-L2 (adenovirus type 5 vector whose fiber carries the RGD-4C peptide in the HI loop; luciferase cassette) (from UniProt P11818 1-546; P11818 547-581)
Luc enzyme activity after transduction of LN444 cells (CAR not expressed), against AdHM4-L2 (wild fiber) [3]: 1000 fold | Luc enzyme activity after transduction of SK-HEP1 cells, against AdHM4-L2 (wild fiber) [2]: 10 fold
